Here are results for 47 sequences from the NTF2 design screens of Basanta et al. (2020).

This data set in a line: protease stability score; higher = more stable; yeast display proteolysis, trypsin and chymotrypsin.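 Further: relative to predicted unfolded state with 0 unfolded-like and 1 meaning tenfold more protease.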
For “DEEEKIMYHIFEVLIKLFLTGDFDTFTKMLDPNVYWNINGQENHGRDKVREALKLWIERFKNRTFDIKITDMRVQGEKTTLHTRLHVEVDGRHLEHDTVIILIVVDGRIKTIVIHIH”, the protease stability score is 2.51.
“DEEEKISKEATDNFIREFETGNEEDLMKNMDPNARLIQGDKHNHGRDEASRFLVELLRDLGFKHIRLTHVRIIDGRVWVHSDLHFNGVEFKQDVIFTKINGKWTLKSLTIK” came in with a protease stability score of 1.13.
The same measure for “DEEEKIVEDAIRVWRRVLMTGDEEASRDLMDPNYKLVVGDKEYHGREEIVTYFKILVEHIRIDDFDVRHIRVQGDKIDINSEINGTIDGRHKRLEVTIHAHKFDGRWHLTEIIIH”: 0.811; for “DEEEKKAQEFLEFVMSALETGDEETLKRLMDPRVRLRFDGRDIHGREEVLRVWIEVLKRADHVRVEIRDMEFQGDKLHIHFELILHIGDKENHIEIRQNVFKVDGQWIIKEHEIR”: 2.22; for “DEEEKKFHELYKHLVKSLITGDEHELYRLADPNMRFSVGEFHYHGRENVLERLKEFIDRFRHATIRTKHMDRQGEYIHLTLKIHQGDKTHDMEIIAWKFDGRWFLHMIYIE”: 0.959.
Turning to “DEEEKKWKDMVHLWFHWHVTGDFEALYENFDPNARLEQTIDGKRIEVHGREVVKEFFHRLMEELGVDHIRIERRQIQGEKVHIRGTSIFNGKERDVHIDLVVIDGRFRSARIIFN”, the protease stability score turned out to be 1.39.
The sequence “DEEEKLARHWMEVWHHAEHTGDFEEFNRLLDPHTRIEINFDGQRVELHGRHEYERFFRELGMEIRRIRLRDLHVVDGKWHIDGERDGEYDGKRIDSQIIIIYRVIDGRVKEIRKDDR” yielded a protease stability score of 0.816.
The sequence “DEEEKLARKIVEDWVRAMTTGDEDDLRRLADPNVRHDINGVELHGMDEWLRVLLERGYEIRIQFRHIRVYDGRVEIDIDLEIRIGDKHHHHHVHLIFEKIDGRWRMKSEKTD” yielded a protease stability score of 1.9.
“DEEEKLATIVMELIEETWETGDEDLFEQLADPNVRVEIGDKVYIGREIALEWFVREIRKRGAELKHTTTHNLDVQGDKVNNDMKVNGNINGRVVIFTTHLDVRKINGKWFLRSISFK” showed a protease stability score of 1.29.
The same measure for “DEEEKLDREIEKTMKETIETGDEHLLSELIDPHARLVFNGKDFHGMEEATRFWYELVTRFKNLTFVPKDVKVFDGRLIMHGINLVNGVERRLTIVVEKINGRWVIRSIHIK”: 1; for “DEEEKLEEDLARFWVTLLKTGDEEVIRHLADPHVREDWDGVHIHGREHVAKYLSQIKNVTWEIKEVRIYNGRTEIDARHHVNGRDEHVRIHIEVFNGKVRRLRFEKR”: 1.5.
In the case of “DEEEKLFHDFASHFVRNFLTGNWDMIKRNADPTVQAHIGDKEIHGWDRIVDHLEERLRKIKGMRHHPRRLVFIGEKTYLDTELHFNGVHVETILIVIVVNGRLKSVEFHIE” it was 0.695; in that of “DEEEKLIRIFDKLLSRAMKTGDEHELFKLIDPHTRMVVNGRTFIGWELFSHVVRHWRIDHIDLEDFKVQGDYAHLDGRVDQTVNGVKIETRSIIINEKFNGRWNNSSVILH”, 0.163; in that of “DEEEKLLEFLVEHIATILVTGDEDRWLTLADPDVKVIIDGRTFIGWEFLEELIHQIRIHRMRIRHFSFVNGRLVFIFSIDGTIGDKRDEHDTRYEMIKIDGRWRLKRVEIR”, 1.48.
On to “DEEEKLLEKMFKDLIRDLLTGDEESFHKLADPNMRLNQGDFQIHGWEDVQRVLRWRMHEMRIHHLHIHHLHFFDGKLHIDGESDIEFNGVRQNRRVEILIKKVDGKWELKEVIIR”, for which the protease stability score was found to be 2.28.
“DEEEKLLEQLARLILHNLLTGDWKSHMNNADPDVKVTVNGVLVHGREDMSHLYRELLERIPNIQIRVDRVDIQGDKVHARLWVEFDGKERQSELHVRIVNGRIKEETYHEK” came in with a protease stability score of 0.937.
The same measure for “DEEEKLMKHRWEEWVRFLKTGDFDEIHDYMDPNVRLFIGDKTFHGRDVFARLVYRMGAKHVEFDLHDEHLINGKLIFHGRVVHTQGDKFIEFEVEIIAEKVNGKWLNRHQIFR”: 0.456; for “DEEEKLRQWIFHLWIKILETGDEKLLEELADPHVLHRFDGVHAHGRERMSSWLRELIERLGVKVHELNSIHIYGDKARINFQVHVDGQRKEMTIHMLMVDGKIKSTQLDRREH”: 1.09; for “DEEEKLSQHMLKEWFEWTITGDEDTLAKMADPNVRVHIGDYHLHGRESMLKWLHDFIRDLGVERIDFHLRDRTVQGNKARLHVVENVNGKSTETEVIIDVIDGRMKLVEIRIR”: 0.198.
For “DEEEKLVEEALREFLRDLMTGDEDSLLRQIDPNARHVYNGQEFHGRKWFEEMHKRMGMELKRIEIKDSDIVNGRAISHVEVHSRIGDKRLRIETEIVTLKVNGQWLVKSLSLI”, the protease stability score came out at 1.15.
As for “DEEEKLVRYLRELMKKAWLTGDEDYIRKLMDPDTWFIYGDKHWHGMEEVTKAFEYLLHHLRIEHSIDRHVSIIGNKVHIDGEVDVTIGEKRDRRRQEIILIIVDGRIKTIEFHER”, the protease stability score came to 0.942.
The same measure for “DEEEKLWHEVARLEFELIHTGNEETWNKLADPHTRTDINGKKLHGREDFAKWSLEFLRKVKGMTMELRSTHIQGNKIRLIIRLIVDGREVKLDLEIVIINGKLREVKMEVEDT”: 2.56.
“DEEEKMDELLIKIWLKVNETGDEDTFSKLLDPDAKVIVGDKVLHGREEIEELMRQLRVDRIHVRRHKAVNGQIHQDWELRGTVNGREIRTETRVHTIKVNGQWVIHRLKIE”: the protease stability score was determined as 1.49.
For the sequence “DEEEKMHTKAVELTETILKTGDERIIKEMADPNTRVIFDGVDLHGMEHWTEFWRRLGFKHIEIRTTEVVDGRVIIIQHVRYNGKKHESHVYADKIDGRWLYTHVEIR”, the protease stability score turned out to be 0.618.
The same measure for “DEEEKRAHEIVRRFLKWFLTGDEEASRKNMDPSVIMVINIGDKRIELHGMEQVSEFWHETVRRYDHIDIKLKDIEVQGDKAVTHGHLELRVGDKRFETDVQIILIYIDGRISFMSVNIV”: 2.48; for “DEEEKRAREQYKLMFHNLQTGDEDTLKKLMDPNVRLDINGQEHHGRENVVKFWEHFIRKLGVKHMEWKDRDVEITENHVNFHGYIIIDIDGQERRLHTIIILRKVDGKWVVESLVFK”: 2.23.
As to “DEEEKRERKMAEIWMKSLLTGDEDTLSRLADPNVRNVLIIDGRELNLHGRELMHESLRHLRIEHIRIDEYSIVNGVFHANTTVHGVVGDKRTTVETRIHLWIFDGKFHTIIIIIS”, the protease stability score was 1.03.
Consider “DEEEKRIEEIARLIFKLWHTGDEEHFLRLADPHVRLNVDGRELHGRERVKHWLHELRHRVDHITDYKEKHKENQGEFFVQWGVLDVHVDGKNVRTRVRIEIVVIDGKINEVRIEVH”, for which the protease stability score came to 1.36.
The same measure for “DEEEKRVIHIINLVEHALETGDEDLYKNLLDPDPIYNINGRILHGREFWLEFLHHMRESIEISHWHDVRSQGDKVTVHAKTTFLIRIGDKVDRVETEVRIIIVKINGRWLLHEIHHH”: 0.849; for “DEEEKRWRHMTHLFWHIEKTGNEDRLSKLADPDVRLNINGVHAHGREEVISVLREFQERYKNLTIHIKDIKVFDGVVFIDGEDHFDGVTVKSLVIIFIVNGRIKEIEHRRE”: 1.62.
In the case of “DEEEKSLREMMRQFVEHLETGNFEEIEKMADPNARVRIDGRDFVGREEWHKMFIHLHKHLRLEDSHIHHIDFQGNKIHIHGHIHVVVDGKREHRHFHVIIRKVNGRWTIEEMYIE” it was 1.06; in that of “DEEEKSLRFAIKMMEELIQTGDEDLFERLLDPDTRLRVGDKTFHGREQVLKWFEEWLKRMGADHVELRLHDMRVVGDKLDLDVEYRQYVGDKDIHDRRHLIIIKVNGRWYFKEVRIL”, 1.67.
The same measure for “DEEEKTFEQIVRHLIDDLVTGDWEKLRDYFDPHVRVEIGDKRIVGRETLVDELSHWRVKHVRVELHDYRVINGRIEVHGSVDFRGNIDGRELRHSYETKIIFDKINGRWTLQSHHVL”: 1.21; for “DEEEKVEDDMLHRWLQYFLTGDEEHLLELADPRVRVRINGKDDHGMNAVERFWEEYRRKFKNVRIHIHDMRYYDGVIHVDGILQINGKTLKIEFIIVIVNGRIRFITENIR”: 1.73.
As for “DEEEKVIKDVVDMLRKALRTGDEERIRELADPDVRIEQGDKELHGRELWLEWLKEIRTERVILHVRRVRHFNGKIINEIEVRMDVRVGEFRHESTVSTILIMEKFNGRWHIRSMIIE”, the protease stability score was determined as 1.5.
As to “DEEEKVSRLAWELLFKTWKTGDEHEFHHMFDPDVRVDFNGRHLHGREAEEILFKQVDHIEDLHLRHIHMIDGKIQIEEDVVGHFNGQRTNVHVRFVAKKIDGRWRNKMVIVR”, the protease stability score came to 1.2.
The same measure for “DEEEKVVFELLRLFITAWETGDEDVLLRLADPNVRMTIGDKHYHGMEHFSHVYLLIFEELRITVKVHDIRIIGDKAYVDVEERRHQGDKSWKYRTHYEFEKIDGRWKLRRVEVK”: 2.54; for “DEEEKWFRESEKLIEELIHTGNEEEFRKLADPNMRLDFNGVEVHGRHHFFREIRHTSEKFGVDKVEVRLKDFKVFNGVAHYHGEIIFNGRTIEHEIIAEKVNGRWRLQFLIFR”: 1.61; for “DEEEKWIRHILELVLRAEKTGDEDRLSELMDPDVKLDIDGRDLHGREKVKEWIEELKHKFKNLRIIDRDIRIYGEKHNVHGELHFNGQTHSAIIILRIVDGRIKEIFVIHV”: 1.32.
The same measure for “DEEEKWMRNLTEWLLKSLTTGDFESFNRMFDPRTRMHVDGREFHGREEVERYLREFDDKLGADHRESDLEHIEVQGNKARFHTTLKFDIGDKHLRIDTHLVIVKINGQWRIRHVEVR”: 0.839; for “DEEEKYIKSLAKLISHAISTGDFELFHKLVDPDVRLIVDGVDLHGWELATKWIEEIRVEDHEVRVKEVRFVDGRANSDGEVILDGEYNGREKRVERKTILVSLKVDGRWTVKSLEIK”: 0.882.
The same measure for “DEEEKYSKEANTMSRHLVETGDEEIMSKLLDPDVRNDVDGVEFHGRELLSRILKEWRVRFESMHIEDEELQGDKVIVHGRELVRMIYDGKTFNTERKVIFIVVKINGRWFIKEVKVL”: 0.751; for “DEEEKYVEDIAREFLHAMRTGDEEWNKELADPHVRMHLHQGDYILNLHGRDLFTRVIRYLVDQWRLEIRIENFDSIGNKIEVHGTIILKQGDKSIKRKSIIHIDVVNGRLKEVHIHLQ”: 0.152.
In turn, “DEEENMAEWAIRLMKHVIETGNFEEFLRLFDPNTRMHVNGVESHGRERSSKVLKEWLEIMGVDHLKVRDEKFSVQGNKLHIHLDTRTEQGDKEIETHIEVISYKIDGRWRQKEIRFEVR” came in with a protease stability score of 1.69.
The same measure for “DEEEQAASHLEELIFRVIETGDWRNFYKMMDPDVRLDFNGQEYHGRENVTEAWHNSFHDLGIKHIELRTKNSQGDFLHLNFIVRYNGREFNVHFNWHVIDGRMKLIDIRVEHI”: 0.585; for “DEEEQEFREFMKHVLEMIRTGDEDQWRKLMDPDARLIVDGKDIHGREEVVRLWSEITRHARFRDRKIHSMEIQGDKVRVDGRVLGEFNGVDRQTESHIIFHKINGRWKIHQEFIV”: 0.882.
The same measure for “DEEEQHAERVTRRWSRAVLTGNEEELSRLMDPHVRVHINGRDLHGREVAVEQRREQHKELGIDHIEVRLRHLRIQGDKLEVDSRVIIRVNGQEITIDTLLIWRKIDGRWVLHSVHEH”: 0.348.
